Target: DDX19B, Q9UMR2-1
Sequence (Q9UMR2 whole entry): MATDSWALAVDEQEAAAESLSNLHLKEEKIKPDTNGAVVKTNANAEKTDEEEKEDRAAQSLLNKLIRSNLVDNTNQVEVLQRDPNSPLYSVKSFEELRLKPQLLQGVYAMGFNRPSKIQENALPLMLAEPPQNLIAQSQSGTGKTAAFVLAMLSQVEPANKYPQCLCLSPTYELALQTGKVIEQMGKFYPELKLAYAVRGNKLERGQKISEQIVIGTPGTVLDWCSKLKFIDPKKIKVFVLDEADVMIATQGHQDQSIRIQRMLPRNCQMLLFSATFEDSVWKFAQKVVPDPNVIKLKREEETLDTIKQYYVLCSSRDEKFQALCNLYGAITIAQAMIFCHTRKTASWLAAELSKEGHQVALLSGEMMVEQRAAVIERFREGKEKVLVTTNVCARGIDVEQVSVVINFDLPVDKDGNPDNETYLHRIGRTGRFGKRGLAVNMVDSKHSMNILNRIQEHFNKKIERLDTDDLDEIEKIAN

Sequence of Nuclear pore complex protein Nup214 (Homo sapiens), P35658-1 V353A (P35658 whole entry V353A, one chain of several): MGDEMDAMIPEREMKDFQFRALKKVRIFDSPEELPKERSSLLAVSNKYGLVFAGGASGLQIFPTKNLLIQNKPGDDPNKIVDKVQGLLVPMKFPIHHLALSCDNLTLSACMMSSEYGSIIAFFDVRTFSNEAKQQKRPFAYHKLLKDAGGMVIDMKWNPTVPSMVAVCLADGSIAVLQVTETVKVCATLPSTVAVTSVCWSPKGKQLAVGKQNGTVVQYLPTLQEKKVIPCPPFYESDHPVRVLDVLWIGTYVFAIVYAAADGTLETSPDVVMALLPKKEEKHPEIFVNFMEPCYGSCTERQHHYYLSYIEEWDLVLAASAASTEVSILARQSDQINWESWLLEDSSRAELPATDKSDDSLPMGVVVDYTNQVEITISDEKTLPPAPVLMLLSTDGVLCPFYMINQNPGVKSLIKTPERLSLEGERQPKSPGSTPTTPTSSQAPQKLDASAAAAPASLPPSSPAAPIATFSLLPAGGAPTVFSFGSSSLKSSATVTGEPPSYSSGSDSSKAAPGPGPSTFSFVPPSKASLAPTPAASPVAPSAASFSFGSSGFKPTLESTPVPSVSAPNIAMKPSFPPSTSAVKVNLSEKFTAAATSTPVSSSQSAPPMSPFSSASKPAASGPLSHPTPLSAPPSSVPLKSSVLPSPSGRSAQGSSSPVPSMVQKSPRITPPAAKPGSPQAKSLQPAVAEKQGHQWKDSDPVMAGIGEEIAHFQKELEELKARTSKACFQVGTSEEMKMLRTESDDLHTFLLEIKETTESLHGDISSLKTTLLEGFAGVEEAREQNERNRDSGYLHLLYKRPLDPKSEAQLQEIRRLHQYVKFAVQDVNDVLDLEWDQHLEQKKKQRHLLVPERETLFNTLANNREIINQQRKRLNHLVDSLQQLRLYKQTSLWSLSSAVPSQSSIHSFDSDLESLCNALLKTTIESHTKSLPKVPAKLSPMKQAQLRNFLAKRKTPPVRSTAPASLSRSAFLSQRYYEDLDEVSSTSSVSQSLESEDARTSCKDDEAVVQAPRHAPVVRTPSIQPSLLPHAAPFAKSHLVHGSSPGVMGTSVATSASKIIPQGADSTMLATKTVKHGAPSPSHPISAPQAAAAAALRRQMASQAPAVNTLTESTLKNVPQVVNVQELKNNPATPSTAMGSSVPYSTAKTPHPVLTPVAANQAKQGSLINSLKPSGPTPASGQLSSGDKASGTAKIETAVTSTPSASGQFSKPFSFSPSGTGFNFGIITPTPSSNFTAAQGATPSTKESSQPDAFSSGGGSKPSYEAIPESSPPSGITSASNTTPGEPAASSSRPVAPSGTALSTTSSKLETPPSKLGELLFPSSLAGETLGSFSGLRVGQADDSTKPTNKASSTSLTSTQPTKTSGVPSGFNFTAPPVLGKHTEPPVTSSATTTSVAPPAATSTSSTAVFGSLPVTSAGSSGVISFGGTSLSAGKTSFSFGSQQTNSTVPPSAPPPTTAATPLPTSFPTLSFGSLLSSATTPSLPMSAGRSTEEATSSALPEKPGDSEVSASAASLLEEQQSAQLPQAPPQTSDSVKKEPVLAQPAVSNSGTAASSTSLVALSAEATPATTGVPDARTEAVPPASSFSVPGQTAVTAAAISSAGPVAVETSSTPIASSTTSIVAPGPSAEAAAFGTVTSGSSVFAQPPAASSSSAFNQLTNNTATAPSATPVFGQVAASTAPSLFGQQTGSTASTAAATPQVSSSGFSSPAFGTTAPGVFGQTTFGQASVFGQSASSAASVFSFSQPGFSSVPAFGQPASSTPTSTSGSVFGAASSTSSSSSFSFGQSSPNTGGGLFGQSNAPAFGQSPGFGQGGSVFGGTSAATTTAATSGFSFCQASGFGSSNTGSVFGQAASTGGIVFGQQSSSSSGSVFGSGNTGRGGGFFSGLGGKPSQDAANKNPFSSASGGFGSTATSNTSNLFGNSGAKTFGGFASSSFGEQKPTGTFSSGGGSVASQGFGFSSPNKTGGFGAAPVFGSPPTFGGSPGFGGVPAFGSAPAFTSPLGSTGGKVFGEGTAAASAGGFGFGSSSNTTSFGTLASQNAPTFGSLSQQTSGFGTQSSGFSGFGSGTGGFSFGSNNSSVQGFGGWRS
Sequence of Nuclear pore complex protein Nup214 (Homo sapiens), P35658-1 D359R (P35658 whole entry D359R, one chain of several): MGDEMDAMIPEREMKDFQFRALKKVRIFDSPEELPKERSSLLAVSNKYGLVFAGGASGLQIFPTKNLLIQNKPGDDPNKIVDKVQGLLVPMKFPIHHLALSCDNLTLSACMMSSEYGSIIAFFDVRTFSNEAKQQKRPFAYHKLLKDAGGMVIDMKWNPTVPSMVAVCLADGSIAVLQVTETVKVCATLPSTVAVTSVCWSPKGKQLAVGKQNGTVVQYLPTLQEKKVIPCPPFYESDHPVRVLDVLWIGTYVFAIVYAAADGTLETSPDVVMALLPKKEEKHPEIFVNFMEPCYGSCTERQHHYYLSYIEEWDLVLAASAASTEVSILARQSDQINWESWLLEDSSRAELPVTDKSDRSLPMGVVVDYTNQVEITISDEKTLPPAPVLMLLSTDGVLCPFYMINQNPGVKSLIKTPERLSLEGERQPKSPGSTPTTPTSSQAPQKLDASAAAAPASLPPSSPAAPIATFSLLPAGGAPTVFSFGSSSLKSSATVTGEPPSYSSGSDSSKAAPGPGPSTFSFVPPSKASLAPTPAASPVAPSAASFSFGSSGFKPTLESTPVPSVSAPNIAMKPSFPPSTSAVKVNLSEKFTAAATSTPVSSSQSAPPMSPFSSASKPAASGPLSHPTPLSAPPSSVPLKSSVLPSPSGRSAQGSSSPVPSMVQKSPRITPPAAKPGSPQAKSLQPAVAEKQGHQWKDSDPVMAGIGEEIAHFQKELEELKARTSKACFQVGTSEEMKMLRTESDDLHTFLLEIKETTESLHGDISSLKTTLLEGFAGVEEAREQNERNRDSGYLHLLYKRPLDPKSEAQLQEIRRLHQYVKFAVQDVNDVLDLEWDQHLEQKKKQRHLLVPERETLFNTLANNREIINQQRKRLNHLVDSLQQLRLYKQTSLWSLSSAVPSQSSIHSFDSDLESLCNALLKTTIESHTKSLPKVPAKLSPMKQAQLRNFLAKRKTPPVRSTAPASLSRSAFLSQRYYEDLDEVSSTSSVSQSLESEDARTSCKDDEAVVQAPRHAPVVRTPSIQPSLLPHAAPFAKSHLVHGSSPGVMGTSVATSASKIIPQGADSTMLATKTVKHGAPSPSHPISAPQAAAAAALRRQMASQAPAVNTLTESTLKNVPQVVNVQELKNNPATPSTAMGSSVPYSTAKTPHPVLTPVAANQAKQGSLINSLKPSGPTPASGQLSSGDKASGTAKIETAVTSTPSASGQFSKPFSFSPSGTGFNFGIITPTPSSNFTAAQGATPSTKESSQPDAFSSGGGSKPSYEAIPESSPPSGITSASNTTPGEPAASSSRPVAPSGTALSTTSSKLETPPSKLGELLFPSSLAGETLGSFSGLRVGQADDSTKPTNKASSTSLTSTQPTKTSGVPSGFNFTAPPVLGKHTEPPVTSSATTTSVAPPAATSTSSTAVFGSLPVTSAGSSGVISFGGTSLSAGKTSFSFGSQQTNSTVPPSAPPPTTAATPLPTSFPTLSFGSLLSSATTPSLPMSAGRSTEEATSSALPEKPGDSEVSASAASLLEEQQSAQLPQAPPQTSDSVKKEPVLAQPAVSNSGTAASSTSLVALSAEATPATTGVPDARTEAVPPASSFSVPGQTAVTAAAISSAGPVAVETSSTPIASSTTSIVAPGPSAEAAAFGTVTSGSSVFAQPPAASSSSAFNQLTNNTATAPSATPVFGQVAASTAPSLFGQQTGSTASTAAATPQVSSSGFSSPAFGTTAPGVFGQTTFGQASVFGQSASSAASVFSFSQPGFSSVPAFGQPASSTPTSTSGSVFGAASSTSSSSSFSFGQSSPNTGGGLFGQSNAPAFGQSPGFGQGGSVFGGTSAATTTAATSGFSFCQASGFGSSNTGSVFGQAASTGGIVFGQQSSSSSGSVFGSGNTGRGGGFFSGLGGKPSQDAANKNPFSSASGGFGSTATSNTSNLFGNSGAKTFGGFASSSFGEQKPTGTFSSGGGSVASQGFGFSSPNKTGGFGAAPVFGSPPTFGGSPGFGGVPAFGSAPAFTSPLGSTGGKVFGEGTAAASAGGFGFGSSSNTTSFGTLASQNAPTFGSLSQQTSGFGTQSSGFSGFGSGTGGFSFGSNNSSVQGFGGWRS

effect of a mutation on the interaction	Substance
disrupting interaction	Nuclear pore complex protein Nup214 (Homo sapiens), P35658-1 D359R
decreasing interaction	Nuclear pore complex protein Nup214 (Homo sapiens), P35658-1 V353A

Reference: IntAct's records for PubMed 19219046
